The assay deals with Streptococcus pyogenes Cas9 (Streptococcus pyogenes, UniProt Q99ZW2 1-1368). Nature of the assay: native gel or EMSA. On the technique in general: Mobility shift assays separate free from complexed probe on a gel.

The record followed here is article PMC6480404 (Molecular cell, 2018).

B1: AcrIIA4 (natural protein, Listeria monocytogenes prophage, UniProt A0A247D711 1-87, looked up)
chain: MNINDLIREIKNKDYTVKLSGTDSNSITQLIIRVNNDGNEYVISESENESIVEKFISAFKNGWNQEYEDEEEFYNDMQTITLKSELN
The term Kd denotes the constant that tells how readily two partners part at equilibrium. B1 gave a Kd of 78 nM.
